The test has as its target recombinant S. cerevisiae histone H3-H4 (S. cerevisiae, UniProt P61830 1-136; P02309 1-103). Description: pull-down.

This note sets out measurements from PMC11313866 (Science Advances, 2024).

B1: GST-Pol32^244-350 (domain or fragment)
chain: DKNNDDLEDLLETTAEDSLMDVPKIQQTKPSETEHSKEPKSEEEPSSFIDEDGYIVTKRPATSTPPRKPSPVVKRALSSSKKQETPSSNKRLKKQGTLESFFKRKAK
Regarding B1, the binding result is reported as “binds”.
